From patent publication US20230190944A1
Starred links: 1 amine or outer side, 2 acyl side, 3 side chain; linkers in the order of their positions; H or OH if unused. Non-standard residues stand in square brackets, D forms with d. Groups on a side chain read outwards from the residue. *: point of attachment. C20 diacid = O=C(O)CCCCCCCCCCCCCCCCCCC(=O)*; γGlu = O=C(O)[C@H](CCC(=O)[*:2])N[*:1]; AEEA = NCCOCCOCC(=O)O; Aib = CC(C)(N)C(=O)O

B1: Compound II (peptide)
peptide: Ac-ASHLSTAVLGK([AEEA-AEEA-γGlu-C20 diacid])LS[Aib]ELHKLEDYPRTDVGAESP-NH2
SMILES: CC(=O)N[C@@H](C)C(=O)N[C@@H](CO)C(=O)N[C@@H](Cc1c[nH]cn1)C(=O)N[C@@H](CC(C)C)C(=O)N[C@@H](CO)C(=O)N[C@H](C(=O)N[C@@H](C)C(=O)N[C@H](C(=O)N[C@@H](CC(C)C)C(=O)NCC(=O)N[C@@H](CCCCNC(=O)COCCOCCNC(=O)COCCOCCNC(=O)CC[C@H](NC(=O)CCCCCCCCCCCCCCCCCCC(=O)O)C(=O)O)C(=O)N[C@@H](CC(C)C)C(=O)N[C@@H](CO)C(=O)NC(C)(C)C(=O)N[C@@H](CCC(=O)O)C(=O)N[C@@H](CC(C)C)C(=O)N[C@@H](Cc1c[nH]cn1)C(=O)N[C@@H](CCCCN)C(=O)N[C@@H](CC(C)C)C(=O)N[C@@H](CCC(=O)O)C(=O)N[C@@H](CC(=O)O)C(=O)N[C@@H](Cc1ccc(O)cc1)C(=O)N1CCC[C@H]1C(=O)N[C@@H](CCCNC(=N)N)C(=O)N[C@H](C(=O)N[C@@H](CC(=O)O)C(=O)N[C@H](C(=O)NCC(=O)N[C@@H](C)C(=O)N[C@@H](CCC(=O)O)C(=O)N[C@@H](CO)C(=O)N1CCC[C@H]1C(N)=O)C(C)C)[C@@H](C)O)C(C)C)[C@@H](C)O
B2: Compound I (peptide)
peptide: Ac-ASHLSTAVLGKLS[Aib]ELHKLEDYPRTDVGAESP-NH2
SMILES: CC(=O)N[C@@H](C)C(=O)N[C@@H](CO)C(=O)N[C@@H](Cc1c[nH]cn1)C(=O)N[C@@H](CC(C)C)C(=O)N[C@@H](CO)C(=O)N[C@H](C(=O)N[C@@H](C)C(=O)N[C@H](C(=O)N[C@@H](CC(C)C)C(=O)NCC(=O)N[C@@H](CCCCN)C(=O)N[C@@H](CC(C)C)C(=O)N[C@@H](CO)C(=O)NC(C)(C)C(=O)N[C@@H](CCC(=O)O)C(=O)N[C@@H](CC(C)C)C(=O)N[C@@H](Cc1c[nH]cn1)C(=O)N[C@@H](CCCCN)C(=O)N[C@@H](CC(C)C)C(=O)N[C@@H](CCC(=O)O)C(=O)N[C@@H](CC(=O)O)C(=O)N[C@@H](Cc1ccc(O)cc1)C(=O)N1CCC[C@H]1C(=O)N[C@@H](CCCNC(=N)N)C(=O)N[C@H](C(=O)N[C@@H](CC(=O)O)C(=O)N[C@H](C(=O)NCC(=O)N[C@@H](C)C(=O)N[C@@H](CCC(=O)O)C(=O)N[C@@H](CO)C(=O)N1CCC[C@H]1C(N)=O)C(C)C)[C@@H](C)O)C(C)C)[C@@H](C)O

Legend:
[1] = molecular target: Human AMY1 receptor (amylin receptor 1) (human), P30988; assay: cell-based or functional assay
[2] = molecular target: Human CT receptor (calcitonin receptor) (human), P30988; assay: cell-based or functional assay
Human CT receptor (calcitonin receptor) (human), P30988, sequence (P30988 25-474): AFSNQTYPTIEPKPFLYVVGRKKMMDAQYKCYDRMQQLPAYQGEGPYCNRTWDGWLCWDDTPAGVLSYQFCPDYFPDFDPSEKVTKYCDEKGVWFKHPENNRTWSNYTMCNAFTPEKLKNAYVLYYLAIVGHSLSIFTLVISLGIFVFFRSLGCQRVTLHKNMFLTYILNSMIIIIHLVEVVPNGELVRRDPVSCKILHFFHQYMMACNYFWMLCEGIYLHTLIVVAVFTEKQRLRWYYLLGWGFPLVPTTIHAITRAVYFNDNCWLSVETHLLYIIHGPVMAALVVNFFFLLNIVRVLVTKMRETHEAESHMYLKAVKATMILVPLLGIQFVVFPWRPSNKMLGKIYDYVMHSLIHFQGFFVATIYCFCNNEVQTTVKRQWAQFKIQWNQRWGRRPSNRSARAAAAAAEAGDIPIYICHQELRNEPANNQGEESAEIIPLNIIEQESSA

Human AMY1 receptor (amylin receptor 1) (human), P30988, sequence (P30988 25-474, chain 1 of 2): as the sequence (P30988 25-474) above
Human AMY1 receptor (amylin receptor 1) (human), P30988, sequence (O60894 27-148, chain 2 of 2, further chain): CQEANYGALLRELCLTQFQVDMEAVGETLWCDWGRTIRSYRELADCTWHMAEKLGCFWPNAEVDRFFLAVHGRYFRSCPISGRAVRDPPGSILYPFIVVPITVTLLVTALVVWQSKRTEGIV

Binder | hAMY1 cAMP EC50 (pM) [1] | hCT cAMP EC50 (pM) [2]
B1 | 49.4 pM | 40.9 pM
B2 | 49.3 pM | 31.7 pM
